{"source": "patent US20110177064A1", "about": "“Compositions and Methods for Treatment of Ovarian Cancer” (priority 2010, published 2011)", "molecules": {"B1": {"name": "IMGN901 (conjugate, chains of the INN, looked up)", "VH": "QVQLVESGGGVVQPGRSLRLSCAASGFTFSSFGMHWVRQAPGKGLEWVAYISSGSFTIYYADSVKGRFTISRDNSKNTLYLQMNSLRAEDTAVYYCARMRKGYAMDYWGQGTLVTVSS", "VL": "DVVMTQSPLSLPVTLGQPASISCRSSQIIIHSDGNTYLEWFQQRPGQSPRRLIYKVSNRFSGVPDRFSGSGSGTDFTLKISRVEAEDVGVYYCFQGSHVPHTFGQGTKVEIK", "modifications": "mertansine (DM1) conjugate"}}, "key": {"[1]": {"test_system": "COLO 720E human ovarian carcinoma xenografts", "assay": "Low-dose IMGN901 combination therapy of established subcutaneous COLO 720E xenografts", "type": "in vivo, mice", "conditions": "single agent IMGN901 11.4 mg/kg qw×3", "method": "(§1) Mice were inoculated with human ovarian cancer cell lines and allowed to become established (average tumor size of about 100 mm^3) prior to treatment. Conjugate dosing is described based on DM1 concentration. Efficacy is reported as both the % of tumor growth for treated vs. control (% T/C) and log cell kill (LCK) determined from the tumor doubling time and the tumor growth delay due to the treatment.\nThe anti-tumor effect of reduced doses of IMGN901 and paclitaxel plus carboplatin was evaluated in established subcutaneous COLO 720E xenografts. When the tumors reached about 100 mm^3 in size (14 days after tumor cell inoculation), the mice were randomly divided into groups of 6 animals each based on tumor volume. Mice were treated with the single agent IMGN901 at a dose of 11.4 mg/kg (qw×3) or the chemotherapeutic combination paclitaxel/carboplatin at either a high-dose (paclitaxel 20 mg/kg, qw×3/carboplatin, 100 mg/kg ip, single injection) or a low-dose (paclitaxel 10 mg/kg, qw×3/carboplatin, 100 mg/kg ip, single injection)."}, "[2]": {"test_system": "OVCAR-3 human ovarian carcinoma xenografts", "assay": "Anti-tumor effect in established subcutaneous OVCAR-3 ovarian carcinoma xenografts", "type": "in vivo, SCID mice", "set-up": "key to activity (NCI standards): Percent T/C values less than or equal to 42% and/or LCK values of 0.5 or greater are considered active; percent T/C values less than 10% are considered highly active", "method": "as §1\nThe anti-tumor effect of IMGN901 was evaluated in an established subcutaneous xenograft model of ovarian carcinoma. SCID mice were inoculated with OVCAR-3 ovarian carcinoma cells (1×10^7 cells/animal) injected subcutaneously into the right flank. When the tumors reached about 100 mm^3 in size (24 days after tumor cell inoculation), the mice were randomly divided into three groups (6 animals per group). Mice were treated with the single agent IMGN901 at 6.5 mg/kg and 13 mg/kg, respectively, administered intravenously once weekly for three weeks (day 24, 31, […]). A control group of animals received PBS administered intravenously at the same schedule. Tumor growth was monitored by measuring tumor size twice per week. Tumor size was calculated with the formula: length×width×height×½."}, "[3]": {"test_system": "COLO 720E human ovarian carcinoma xenografts", "assay": "Dose-response anti-tumor activity in established subcutaneous COLO 720E xenografts", "type": "in vivo, SCID mice", "set-up": "key to activity (NCI standards): Percent T/C values less than or equal to 42% and/or LCK values of 0.5 or greater are considered active; percent T/C values less than 10% are considered highly active", "conditions": "for complete regressions (CR) / partial regressions (PR) / mice remaining tumor free at the end of the study: 6 mice; for mice remaining tumor free at the end of the study: 119 days", "method": "as §1\nThe anti-tumor effect of IMGN901 was evaluated in an established subcutaneous xenograft model of ovarian carcinoma. SCID mice were inoculated with COLO 720E ovarian carcinoma cells (1×10^7 cells/animal) injected subcutaneously into the right flank. (The COLO 720E human ovarian adenocarcinoma cell line was obtained from the European Collection of Cell Cultures (ECACC, catalog no. 93072111).) When the tumors reached about 100 mm^3 in size (10 days after tumor cell inoculation), the mice were randomly divided into four groups (6 animals per group). Mice were treated with the single agent IMGN901 at 6, 12 and 24 mg/kg, respectively, administered intravenously once weekly for three weeks (day 10, 17 and 24). A control group of animals received PBS administered intravenously at the same schedule. Tumor growth was monitored by measuring tumor size twice per week. Tumor size was calculated with the formula: length×width×height×½."}, "[4]": {"test_system": "COLO 720E human ovarian carcinoma xenografts", "assay": "Combination therapy of established subcutaneous COLO 720E xenografts", "type": "in vivo, Athymic nude mice", "set-up": "key to activity (NCI standards): Percent T/C values less than or equal to 42% and/or LCK values of 0.5 or greater are considered active; percent T/C values less than 10% are considered highly active", "description": "as §1\nThe anti-tumor effect of a combination of huN901-DM1 and paclitaxel plus carboplatin was evaluated in an established subcutaneous xenograft model of ovarian cancer. Athymic nude mice were inoculated with COLO 720E human ovarian carcinoma cells (1×10^7 cells/animal) injected subcutaneously into the right flank. When the tumors reached about 80 mm^3 in size (10 days after tumor cell inoculation), the mice were randomly divided into six groups (6 animals per group). Mice were treated with the single agent IMGN901 at a dose of 13 mg/kg once weekly for three weeks (day 10, 17 and 24 post tumor cell inoculation) administered intravenously. Two additional groups of mice were treated with the combination chemotherapy regimen paclitaxel/carboplatin at two dose levels: a high-dose group of paclitaxel (20 mg/kg iv, weekly for 3 weeks)/carboplatin (100 mg/kg ip, single injection) and a low-dose group of paclitaxel (10 mg/kg iv, weekly for 3 weeks)/carboplatin (100 mg/kg ip, single injection). Two additional groups were treated with the combination of IMGN901 and either high-dose or low-dose paclitaxel/carboplatin with the same doses and routes of administration as for individual treatments. Tumor growth was monitored by measuring tumor size twice per week. Tumor size was calculated with the formula: length×width×height×½."}, "[5]": {"conditions": "IMGN901 13 mg/kg iv once weekly for three weeks"}, "[6]": {"conditions": "24 mg/kg iv once weekly for three weeks"}, "[7]": {"conditions": "single-agent IMGN901 13 mg/kg iv once weekly for three weeks"}}, "note": "“And” between values parts separate entries of the source, which are not always exact repeats. Equal values may be shown once.", "data": [{"molecule": "B1", "values": [{"measurement": "Response", "setting": "[1]", "result": "inactive"}, {"measurement": "T/C", "setting": "[1]", "result": 62, "unit": "%"}, {"measurement": "CR", "setting": "[1]; 11.4 mg/kg", "result": "no partial (PR) or complete regressions (CR) and 0/6"}, {"measurement": "PR", "setting": "[1]; 11.4 mg/kg", "result": "no partial (PR) or complete regressions (CR) and 1/6"}, {"measurement": "activity (NCI standards)", "setting": "[2]; IMGN901 6.5 mg/kg iv once weekly for three weeks", "result": "inactive"}, {"measurement": "activity (NCI standards)", "setting": "[2]; [5]", "result": "active"}, {"measurement": "tumor growth inhibition (T/C)", "setting": "[2]; [5]", "result": 21, "unit": "%"}, {"measurement": "activity (NCI standards)", "setting": "[3]; 6 mg/kg iv once weekly for three weeks", "result": "inactive"}, {"measurement": "activity (NCI standards)", "setting": "[3]; 12 mg/kg iv weekly for 3 weeks", "result": "active"}, {"measurement": "mice exhibiting tumor regressions", "setting": "[3]; 12 mg/kg iv weekly for 3 weeks", "result": "Four of 6"}, {"measurement": "tumor growth inhibition value (T/C)", "setting": "[3]; 12 mg/kg iv weekly for 3 weeks", "result": 18, "unit": "%"}, {"measurement": "complete regressions (CR)", "setting": "[3]; 12 mg/kg iv weekly for 3 weeks", "result": 2}, {"measurement": "partial regressions (PR)", "setting": "[3]; 12 mg/kg iv weekly for 3 weeks", "result": 4}, {"measurement": "mice remaining tumor free at the end of the study", "setting": "[3]; 12 mg/kg iv weekly for 3 weeks", "result": "one"}, {"measurement": "activity (NCI standards)", "setting": "[3]; [6]", "result": "highly active (percent T/C values less than 10% are considered highly active)"}, {"measurement": "mice exhibiting tumor regressions", "setting": "[3]; [6]", "result": "six"}, {"measurement": "tumor growth inhibition value (T/C)", "setting": "[3]; [6]", "result": 0, "unit": "%"}, {"measurement": "complete regressions (CR)", "setting": "[3]; [6]", "result": 6}, {"measurement": "partial regressions (PR)", "setting": "[3]; [6]", "result": 6}, {"measurement": "mice remaining tumor free at the end of the study", "setting": "[3]; [6]", "result": "four"}, {"measurement": "T/C", "setting": "[4]; [7]", "result": 32, "unit": "%"}, {"measurement": "activity (NCI standards)", "setting": "[4]; [7]", "result": "active"}, {"measurement": "complete regression", "setting": "[4]; [7]", "result": "one of six"}, {"measurement": "partial tumor regressions", "setting": "[4]; [7]", "result": "Two of six"}, {"measurement": "tumor-free survivors", "setting": "[4]; single-agent IMGN901 13 mg/kg, end of study day 123", "result": "no tumor-free survivors"}]}]}
